This note sets out measurements from patent US20250375530A1 (ALMAC DISCOVERY, published 2025).

Assay [1] deals with T1, human ROR1-Fc (CHO) (human).
T1 construct: also called hROR1-Fc; huROR1-Fc
Briefly: ELISA, plate coated with human ROR1-hFc, HisMyc-tagged VNAR at a single 5 ug/mL, Abs 450 nm; no blank bar shown. (ELISA stands for enzyme-linked immunosorbent assay.)

For the next assay, the target named is T2, mouse ROR1-Fc (CHO) (mouse).
T2 construct: also called mROR1-hFc; mROR1
Briefly: ELISA, mROR1-hFc coated.

Assay [2] concerns the target T1, human ROR1-Fc (CHO). The assay can be described thus: ELISA dose response, plate coated with hROR1-Fc, HisMyc-tagged VNAR 0-5 ug/mL (linear axis), Abs 450 nm.
For assay [3], the target named is T1, human ROR1-Fc (CHO). Briefly: BLI, hROR1; MMAE conjugate. For orientation: BLI is a label-free optical method that tracks binding on a fibre tip over time.

Residue numbers refer to the chain shown, from its start.

T1 sequence (chain, as listed by the source limits assumed): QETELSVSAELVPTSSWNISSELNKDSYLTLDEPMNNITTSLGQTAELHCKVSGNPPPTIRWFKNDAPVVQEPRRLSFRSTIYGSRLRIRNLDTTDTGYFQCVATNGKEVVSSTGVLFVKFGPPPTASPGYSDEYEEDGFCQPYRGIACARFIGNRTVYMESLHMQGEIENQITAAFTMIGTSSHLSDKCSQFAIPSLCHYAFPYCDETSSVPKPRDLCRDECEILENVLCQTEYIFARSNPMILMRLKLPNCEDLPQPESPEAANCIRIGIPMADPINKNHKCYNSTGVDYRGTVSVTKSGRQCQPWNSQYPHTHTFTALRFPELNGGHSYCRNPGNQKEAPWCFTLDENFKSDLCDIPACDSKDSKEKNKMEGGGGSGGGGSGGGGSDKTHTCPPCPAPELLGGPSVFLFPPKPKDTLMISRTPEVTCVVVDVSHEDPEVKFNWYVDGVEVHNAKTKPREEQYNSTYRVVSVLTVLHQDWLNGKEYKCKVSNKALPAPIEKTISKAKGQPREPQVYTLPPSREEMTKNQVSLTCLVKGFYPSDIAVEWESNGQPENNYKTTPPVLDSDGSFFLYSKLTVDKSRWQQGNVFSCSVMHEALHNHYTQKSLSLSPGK
T2 sequence (chain, as listed by the source limits assumed): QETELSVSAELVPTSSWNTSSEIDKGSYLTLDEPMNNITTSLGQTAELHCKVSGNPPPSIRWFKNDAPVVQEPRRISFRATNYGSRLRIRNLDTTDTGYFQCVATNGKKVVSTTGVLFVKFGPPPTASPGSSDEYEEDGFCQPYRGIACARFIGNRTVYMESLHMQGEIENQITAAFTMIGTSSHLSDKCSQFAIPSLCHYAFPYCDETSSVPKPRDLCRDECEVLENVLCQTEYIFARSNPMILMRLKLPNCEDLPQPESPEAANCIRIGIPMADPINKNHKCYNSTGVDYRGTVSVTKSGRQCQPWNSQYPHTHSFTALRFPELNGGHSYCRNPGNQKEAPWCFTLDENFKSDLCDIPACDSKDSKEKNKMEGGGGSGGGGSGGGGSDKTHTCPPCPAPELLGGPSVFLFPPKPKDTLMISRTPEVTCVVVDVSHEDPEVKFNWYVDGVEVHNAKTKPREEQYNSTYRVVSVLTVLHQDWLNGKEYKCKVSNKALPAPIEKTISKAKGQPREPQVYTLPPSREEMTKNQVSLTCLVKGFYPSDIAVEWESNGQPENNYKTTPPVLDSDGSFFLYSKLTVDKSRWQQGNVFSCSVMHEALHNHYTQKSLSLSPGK

B1: P3A1 G1 AE3.S (VNAR)
VNAR: TRVDQSPSSLSASVGDRVTITCVLTGTRYGLYSSTYWYRKNPGSSDEERISISGRYSESVNKGTKSFTLTISSLQPEDSATYYCRAREARHPWLRQWYDGAGTKVEIKQ
notes: VNAR; entry includes the HisMyc tag
For the molecule B1, the binding result with human ROR1-Fc (CHO) [1] and with mouse ROR1-Fc (CHO) was “binds” throughout.

B2: P3A1 G1 NAC6.S (VNAR)
VNAR: B1 VNAR with G26D, G30A, S45T, S53G, T64S
notes: as for B1
As for B2, the binding result with human ROR1-Fc (CHO) [1] and in the assay with mouse ROR1-Fc (CHO) was “binds” in each case.

B3: P3A1 G1 AF7.S (VNAR)
VNAR: B1 VNAR with R28K, S33A, S45T, E47K, S51I, S53G, K62N, G63R, T64S
notes: as for B1
Consider B3, for which the binding result with human ROR1-Fc (CHO) [2] was “binds”.

B4: P3A1 G1 NAG8.S (VNAR)
VNAR: B1 VNAR with R28K, S33A, S45P, D46N, E47K, E48D, I50M, S51I, S53G, K62N
notes: as for B1
Turning to B4, the binding result in the assay with human ROR1-Fc (CHO) [2] is listed as “binds”.

B5: G3CP G4-P3A1G1AE3 MA-vc-PAB-MMAE conjugate (Cys linker) (VNAR, not shown: small tags and cut ends)
chain: TRVDQSPSSLSASVGDRVTITCVLTDANYGLAATYWYRKNPGSSNKERISISGRYSESVNKGTMSFTLTISSLQPEDSATYYCRAYPWGAGAPYNVQWYDGAGTKVEIKPGVQPCPGGGGGSTRVDQSPSSLSASVGDRVTITCVLTGTRYGLYSTYWYRKNPGSSDEERISISGRYSESVNKGTKSFTLTISSLQPEDSATYYCRAREARHPWLRQWYDGAGTKVEIK
modifications: MA-vc-PAB-MMAE on the single cysteine of the linker PGVQPCPGGGGGS
notes: DAR 1.0
Usually Kd stands for the constant that tells how readily two partners part at equilibrium. The low end stands for tighter binding, the high end for weaker binding. For the molecule B5, the affinity in the assay with human ROR1-Fc (CHO) [3], expressed as Kd, was 0.76 nM.
